{"source": "paper PMC7528653", "test_in_all_cases": "UV crosslinking", "key": {"[1]": {"molecular_target": "T1, MSL1 (Drosophila melanogaster, UniProt P50535 1-1039)", "T1 sequence": "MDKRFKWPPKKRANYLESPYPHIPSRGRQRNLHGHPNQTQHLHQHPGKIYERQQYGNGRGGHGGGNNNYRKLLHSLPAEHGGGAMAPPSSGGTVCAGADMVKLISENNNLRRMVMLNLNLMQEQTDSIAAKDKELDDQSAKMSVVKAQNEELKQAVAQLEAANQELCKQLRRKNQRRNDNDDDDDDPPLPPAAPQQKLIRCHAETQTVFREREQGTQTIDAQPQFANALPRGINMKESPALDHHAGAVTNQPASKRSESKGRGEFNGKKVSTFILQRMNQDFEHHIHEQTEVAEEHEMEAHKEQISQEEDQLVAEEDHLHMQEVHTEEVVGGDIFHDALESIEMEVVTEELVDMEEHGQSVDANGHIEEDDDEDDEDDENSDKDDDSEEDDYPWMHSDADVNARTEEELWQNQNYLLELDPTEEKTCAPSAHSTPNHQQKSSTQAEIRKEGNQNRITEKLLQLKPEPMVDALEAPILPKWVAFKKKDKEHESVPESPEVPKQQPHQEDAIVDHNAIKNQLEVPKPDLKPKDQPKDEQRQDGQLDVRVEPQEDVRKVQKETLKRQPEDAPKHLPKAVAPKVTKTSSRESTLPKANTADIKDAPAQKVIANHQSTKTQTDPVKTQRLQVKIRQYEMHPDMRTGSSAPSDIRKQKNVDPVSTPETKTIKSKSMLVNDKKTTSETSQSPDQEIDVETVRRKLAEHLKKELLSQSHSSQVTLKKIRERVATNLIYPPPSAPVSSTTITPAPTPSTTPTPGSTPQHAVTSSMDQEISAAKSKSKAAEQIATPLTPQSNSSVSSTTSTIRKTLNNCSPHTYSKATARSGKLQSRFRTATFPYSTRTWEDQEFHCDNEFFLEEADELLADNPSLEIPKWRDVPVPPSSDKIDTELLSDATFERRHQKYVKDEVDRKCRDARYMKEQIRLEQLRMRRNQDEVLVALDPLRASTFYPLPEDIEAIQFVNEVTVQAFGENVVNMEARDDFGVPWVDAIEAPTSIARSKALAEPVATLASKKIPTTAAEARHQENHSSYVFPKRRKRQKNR"}, "[2]": {"molecular_target": "T2, MSL2 (Drosophila melanogaster, UniProt P50534 1-773)", "T2 sequence": "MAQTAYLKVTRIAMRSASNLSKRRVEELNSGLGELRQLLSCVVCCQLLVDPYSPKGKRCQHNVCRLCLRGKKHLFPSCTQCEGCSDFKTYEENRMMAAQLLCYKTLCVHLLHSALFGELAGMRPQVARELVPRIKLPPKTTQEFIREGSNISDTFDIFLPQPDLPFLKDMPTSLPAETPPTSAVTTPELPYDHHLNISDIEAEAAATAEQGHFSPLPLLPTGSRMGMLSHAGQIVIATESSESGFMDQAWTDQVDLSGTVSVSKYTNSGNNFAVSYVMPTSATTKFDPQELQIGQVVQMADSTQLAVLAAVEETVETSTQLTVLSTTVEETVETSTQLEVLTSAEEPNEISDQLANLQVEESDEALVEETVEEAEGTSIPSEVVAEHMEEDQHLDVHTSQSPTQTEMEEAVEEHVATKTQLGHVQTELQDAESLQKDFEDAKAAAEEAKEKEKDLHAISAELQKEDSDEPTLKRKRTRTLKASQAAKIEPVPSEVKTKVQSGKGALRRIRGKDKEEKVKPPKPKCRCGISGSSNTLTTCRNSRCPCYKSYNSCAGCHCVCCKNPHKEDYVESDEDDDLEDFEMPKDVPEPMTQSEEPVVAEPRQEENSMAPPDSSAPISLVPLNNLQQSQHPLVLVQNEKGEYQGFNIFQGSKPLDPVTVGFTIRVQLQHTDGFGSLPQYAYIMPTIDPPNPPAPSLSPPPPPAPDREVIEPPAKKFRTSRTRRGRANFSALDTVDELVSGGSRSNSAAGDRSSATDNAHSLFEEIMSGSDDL"}, "[3]": {"molecular_target": "T3, DCCcore (MSL1-MSL2-MSL3-MOF) (Drosophila melanogaster, UniProt P50535;P50534;P50536;O02193 1-1039;1-773;1-512;1-827)", "T3 sequence (P50536 whole entry, chain 3 of 2)": "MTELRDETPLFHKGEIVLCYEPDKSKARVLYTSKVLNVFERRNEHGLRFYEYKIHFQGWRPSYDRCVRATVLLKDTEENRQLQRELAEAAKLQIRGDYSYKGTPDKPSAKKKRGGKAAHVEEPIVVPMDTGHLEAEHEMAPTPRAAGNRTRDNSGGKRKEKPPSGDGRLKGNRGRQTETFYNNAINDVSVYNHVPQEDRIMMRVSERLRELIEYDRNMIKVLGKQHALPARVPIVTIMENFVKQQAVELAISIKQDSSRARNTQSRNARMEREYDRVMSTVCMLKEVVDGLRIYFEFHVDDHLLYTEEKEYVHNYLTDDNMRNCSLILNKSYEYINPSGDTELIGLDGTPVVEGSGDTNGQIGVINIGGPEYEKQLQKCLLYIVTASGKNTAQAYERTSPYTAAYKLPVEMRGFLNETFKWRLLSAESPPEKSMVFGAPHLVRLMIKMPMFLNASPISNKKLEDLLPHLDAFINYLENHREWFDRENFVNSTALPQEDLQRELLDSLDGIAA", "T3 sequence (O02193 whole entry, chain 4 of 2)": "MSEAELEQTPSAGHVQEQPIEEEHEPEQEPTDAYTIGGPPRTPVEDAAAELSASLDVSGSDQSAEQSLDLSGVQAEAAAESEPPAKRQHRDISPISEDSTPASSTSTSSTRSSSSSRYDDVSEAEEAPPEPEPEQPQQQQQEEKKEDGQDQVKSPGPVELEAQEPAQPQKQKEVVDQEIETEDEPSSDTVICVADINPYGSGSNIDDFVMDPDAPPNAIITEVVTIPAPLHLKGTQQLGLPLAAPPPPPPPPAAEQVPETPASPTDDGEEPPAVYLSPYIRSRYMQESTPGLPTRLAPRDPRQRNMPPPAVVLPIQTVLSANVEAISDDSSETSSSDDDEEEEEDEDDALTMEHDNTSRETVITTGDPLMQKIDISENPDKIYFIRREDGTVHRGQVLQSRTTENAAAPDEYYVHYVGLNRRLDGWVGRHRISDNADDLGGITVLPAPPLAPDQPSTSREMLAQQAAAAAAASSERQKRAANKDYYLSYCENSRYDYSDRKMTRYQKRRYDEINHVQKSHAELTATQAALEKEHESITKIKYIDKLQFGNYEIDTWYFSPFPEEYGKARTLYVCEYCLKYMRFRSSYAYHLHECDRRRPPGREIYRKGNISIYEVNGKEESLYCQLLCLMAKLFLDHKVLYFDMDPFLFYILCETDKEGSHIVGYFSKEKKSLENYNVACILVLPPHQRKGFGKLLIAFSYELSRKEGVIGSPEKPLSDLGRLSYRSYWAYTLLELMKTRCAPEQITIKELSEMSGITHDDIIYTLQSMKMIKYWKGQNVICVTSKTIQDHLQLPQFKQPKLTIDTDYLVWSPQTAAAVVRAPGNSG"}, "[4]": {"molecular_target": "T3, DCCcore (MSL1-MSL2-MSL3-MOF)", "remark": "listed apart in the source"}}, "note": "Where two headings read alike, the source gives them in different places."}
{"binder": "UGGGUAACGUUUUACGCGCCUU (structured_RNA)", "note": "[roX2 SL7-3']", "values": [{"measurement": "binding result", "setting": "[1]", "result": "binds"}, {"measurement": "binding result", "setting": "[2]", "result": "binds"}, {"measurement": "binding result", "setting": "[3]", "result": "binds"}]}
{"binder": "AUUAAGCAAAUAUAUAUGCAUAUAU (structured_RNA)", "note": "[roX2 SL7-Loop]", "values": [{"measurement": "binding result", "setting": "[4]", "result": "no binding"}]}
